“Also recorded” adds a separate entry of the source.
Target: MenA1
Settings: sites T39

With MenT1 as the substance, how does the “other: observed/calculated Stokes radius ratio against the heterotrimer” value read?
The value was “weaker; reference 0.97; also recorded: same; reference 0.97”.
